Usually Ki stands for the equilibrium dissociation constant of an inhibitor or competing ligand from its target. High values mean a looser hold on the target, low ones a stronger hold on the target.

For assay [1], the target named is T1, human mature (34+14-kDa) Cath-D (human, UniProt P07339 65-162; P07339 169-412).
T1 construct: domain: 14-kDa light chain;domain: 34-kDa heavy chain; Purified from human liver (Sigma Aldrich); also called mature Cath-D; mature cath-D
Briefly: cleavage of fluorogenic substrate M0938 by mature Cath-D at pH 6, competitive inhibition fit (n=3).

Assay [2] deals with T2, human 51-kDa pseudo-Cath-D (human, UniProt P07339 47-412, limits assumed).
T2 construct: domain: 51-kDa pseudo-Cath-D
T2 sequence (P07339 47-412 limits assumed): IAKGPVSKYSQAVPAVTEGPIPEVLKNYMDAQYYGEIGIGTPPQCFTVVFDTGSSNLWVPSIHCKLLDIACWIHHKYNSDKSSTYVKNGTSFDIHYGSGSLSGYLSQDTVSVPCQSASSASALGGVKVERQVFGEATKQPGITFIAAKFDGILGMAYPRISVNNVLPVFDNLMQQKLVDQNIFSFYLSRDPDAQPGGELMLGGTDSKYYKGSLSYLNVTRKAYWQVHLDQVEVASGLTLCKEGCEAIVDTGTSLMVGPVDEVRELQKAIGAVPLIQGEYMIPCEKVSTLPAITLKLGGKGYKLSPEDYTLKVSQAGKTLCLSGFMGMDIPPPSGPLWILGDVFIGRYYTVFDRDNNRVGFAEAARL
Briefly: cleavage of fluorogenic substrate M2295 by pseudo-Cath-D at pH 6, competitive inhibition fit (n=3).

Positions count from the first letter of the chain named.

T1 sequence (P07339 65-162 limits assumed, chain 1 of 2): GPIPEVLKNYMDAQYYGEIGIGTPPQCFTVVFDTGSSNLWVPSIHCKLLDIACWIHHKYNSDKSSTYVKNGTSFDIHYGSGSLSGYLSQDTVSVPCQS
T1 sequence (P07339 169-412 limits assumed, chain 2 of 2): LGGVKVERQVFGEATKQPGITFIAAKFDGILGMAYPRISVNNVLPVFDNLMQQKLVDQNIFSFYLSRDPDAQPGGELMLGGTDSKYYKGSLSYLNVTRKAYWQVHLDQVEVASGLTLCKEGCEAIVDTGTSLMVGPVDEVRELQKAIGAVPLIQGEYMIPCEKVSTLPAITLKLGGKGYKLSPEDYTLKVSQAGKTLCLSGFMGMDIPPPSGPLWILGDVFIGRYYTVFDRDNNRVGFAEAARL

B1: anti-Cath-D scFv E2 (scFv, V domains shown)
VH: EVQLVESGGSLVKPGGSLRLSCAASGFTFSNSYMNWVRQAPGKGLEWISYISGSSRYSYADFVKGRFTISRDNATNSLYLQMNSLRAEDTAVYYCVRSSNSYFGGGMDVWGRGTLVTVSS
VL: QSVLTQPASVSGSPGQSITISCAGTSSDVGGSYGVSWYQQHPGKAPKLMIYGDSYRPSGVSNRFSGSKSGNTASLTISGLQAEDEADYYCSSYTNYSTRVFGGGTKLAVL
For B1, the Ki in assay [1] was 0.024 µM; in assay [2], 0.754 µM.

B2: anti-Cath-D scFv F1 (scFv, V domains shown)
VH: EVQLVESGGSLVKPGGSLRLSCAASGFTSNNYMNWVRQAPGKGLEWISYISGSSRYISYADFVKGRFTISRDNATNSLYLQMNSLRAEDTAVYYCVRSSNSGGMDVWGRGTLVTVSS
VL: B1 VL with S32Y, G52Y, N95S, Y96N
With B2, the Ki in assay [1] was 0.1 µM; in assay [2], 0.212 µM.

The values above are taken from patent US20180127510A1 (INSERM INSTITUT NATIONAL DE LA SANT ET DE LA RECHERCHE M …, published 2018).
